The values that follow come from patent US20250042992A1 (University of California, published 2025).

Assay [1] deals with T1, mouse DLK1 fused to mGFP, overexpressed on HEK293T cells (mouse, UniProt Q09163 24-385).
T1 construct: not shown: mGFP fluorescent protein fused to DLK1
T1 sequence: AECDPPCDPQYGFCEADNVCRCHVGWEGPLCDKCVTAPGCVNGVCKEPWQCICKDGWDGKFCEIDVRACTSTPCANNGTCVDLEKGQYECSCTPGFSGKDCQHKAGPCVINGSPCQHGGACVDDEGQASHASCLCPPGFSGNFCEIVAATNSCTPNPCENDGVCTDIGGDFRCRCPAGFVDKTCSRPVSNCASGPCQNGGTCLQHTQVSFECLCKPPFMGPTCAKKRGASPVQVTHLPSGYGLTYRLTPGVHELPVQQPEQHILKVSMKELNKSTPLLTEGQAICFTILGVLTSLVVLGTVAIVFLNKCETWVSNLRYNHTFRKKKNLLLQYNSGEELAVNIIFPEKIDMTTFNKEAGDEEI
As to the kind of experiment: KinExA on HEK293T DLK1mGFP Mouse mass pop cells detached by Versene; Error% 3.08; 95% CI 4.21nM - 26.32nM; equilibrium curves 400pM, 50nM. On the technique in general: A kinetic exclusion assay measures how much of one partner remains free in solution.

In assay [2] the target is T2, recombinant fusion protein of human DLK1 extracellular domain (ECD) and monomeric immunoglobulin Fc domain … (human, UniProt P80370 24-303).
T2 construct: also called human DLK1 ECD-mFc fusion protein; not shown: monomeric immunoglobulin Fc domain (mFc)
T2 sequence: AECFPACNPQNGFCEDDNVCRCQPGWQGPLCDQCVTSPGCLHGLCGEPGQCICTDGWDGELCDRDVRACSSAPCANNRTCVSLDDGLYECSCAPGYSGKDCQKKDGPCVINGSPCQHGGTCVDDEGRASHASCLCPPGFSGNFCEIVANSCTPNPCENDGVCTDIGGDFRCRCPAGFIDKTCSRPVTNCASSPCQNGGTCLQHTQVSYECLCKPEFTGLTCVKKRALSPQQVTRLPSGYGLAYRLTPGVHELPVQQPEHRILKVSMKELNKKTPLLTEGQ
The assay is described as follows: affinity on recombinant DLK1 ECD-mFc; method not stated.

Assay [3] addresses human DLK1 endogenously expressed on COR-L279 small cell lung carcinoma cells (human) (UniProt P80370). The assay is described as follows: flow cytometry, antibody at 20µg/ml, row CORL-279 (SCLC, DLK+); row M202 of the same block: 5,208.0.
The target in assay [4] is T3, rat DLK1 fused to mGFP, overexpressed on HEK293T cells (rat, UniProt O70534 24-383).
T3 construct: whole, on cells; not shown: mGFP fluorescent protein fused to DLK1
T3 sequence (looked up): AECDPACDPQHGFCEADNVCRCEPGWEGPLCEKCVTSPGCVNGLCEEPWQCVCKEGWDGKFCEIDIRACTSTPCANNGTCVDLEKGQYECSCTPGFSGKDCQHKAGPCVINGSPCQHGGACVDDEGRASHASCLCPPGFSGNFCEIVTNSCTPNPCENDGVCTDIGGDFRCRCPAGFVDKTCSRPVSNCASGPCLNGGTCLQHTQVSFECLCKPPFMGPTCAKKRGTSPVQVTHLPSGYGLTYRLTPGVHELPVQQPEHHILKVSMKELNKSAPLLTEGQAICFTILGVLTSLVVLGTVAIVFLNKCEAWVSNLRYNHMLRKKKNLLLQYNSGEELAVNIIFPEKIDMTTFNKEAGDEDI
As to the kind of experiment: KinExA on HEK293T DLK1mGFP Rat mass pop cells detached by Versene; Error% 3.17; 95% CI 1.82nM - 13.53nM; equilibrium curves 400pM, 50nM.

B1: humanized anti-DLK1 antibody 04-0547-h2 (IgG1) (antibody, V domains shown)
VH: EVQLVESGGGLVQPGGSLRLSCAASGFSISDYYMAWVRQAPGKGLEWVANINYDGTNTYYADSVKGRFTISRDNSKNTLYLQMNSLRAEDTAVYYCVRSYYYYGMEYWGQGTTVTVSS
VL: DIQMTQSPSSLSASVGDRVTITCRASHDVSTAVAWYQQKPGKAPKLLIYSASYRYTGVPSRFSGSGSGTDFTLTISSLQPEDFATYYCQQHYRIPLTFGQGTKLEIK
notes: human kappa (P01834) and human IgG1 (P01857) constant regions
As usually defined, the Kd is the concentration at which binding is half-saturated. In the case of B1, the Kd is 13 nM in assay [1], roughly 0.3 nM in assay [2] and 5.96 nM in assay [4]. In assay [3], this molecule came in with an Antibody Binding Activity by Flow Cytometry (20µg/ml) of 186000.
